Where two headings read alike, the source gives them in different places. Bridge positions count the residues as written; N and C are the ends. Square brackets hold non-standard residues; d marks the D form. Ends that are not written are not given here. 1Nal = N[C@@H](Cc1cccc2ccccc12)C(=O)O; Sar = CNCC(=O)O
How the values were obtained:
[1] = target: recombinant EPO-R (produced in Chinese Hamster Ovary cells as a fusion protein to a portion of the human … (human, UniProt P05187 490-506)); assay: competitive binding; the column head says only 'IC50'; taken as the AlphaQuest bead proximity assay against the biotinylated tracer SEQ ID NO: 4, by paragraph 206
[2] = target: T1, chimeric receptor comprising the extra-cellular portion of the human EPO receptor to the intra-cellular … (human, UniProt P19235 25-250; Q99062 651-836, limits assumed); assay: cell-based or functional assay
T1 sequence (looked up): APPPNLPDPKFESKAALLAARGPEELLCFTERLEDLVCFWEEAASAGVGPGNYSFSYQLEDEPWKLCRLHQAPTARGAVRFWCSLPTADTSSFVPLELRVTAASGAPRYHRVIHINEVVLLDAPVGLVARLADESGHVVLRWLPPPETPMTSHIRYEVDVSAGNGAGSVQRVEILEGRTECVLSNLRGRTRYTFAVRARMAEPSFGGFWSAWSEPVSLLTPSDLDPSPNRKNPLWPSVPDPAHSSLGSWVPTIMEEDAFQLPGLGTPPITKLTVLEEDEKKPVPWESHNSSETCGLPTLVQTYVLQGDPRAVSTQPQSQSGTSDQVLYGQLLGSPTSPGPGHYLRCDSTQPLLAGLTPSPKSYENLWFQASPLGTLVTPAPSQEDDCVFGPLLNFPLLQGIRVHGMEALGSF

human EPO-R [3] = target: T2, human EPO-R (human, UniProt P19235 25-508); assay: cell-based or functional assay
T2 sequence (looked up): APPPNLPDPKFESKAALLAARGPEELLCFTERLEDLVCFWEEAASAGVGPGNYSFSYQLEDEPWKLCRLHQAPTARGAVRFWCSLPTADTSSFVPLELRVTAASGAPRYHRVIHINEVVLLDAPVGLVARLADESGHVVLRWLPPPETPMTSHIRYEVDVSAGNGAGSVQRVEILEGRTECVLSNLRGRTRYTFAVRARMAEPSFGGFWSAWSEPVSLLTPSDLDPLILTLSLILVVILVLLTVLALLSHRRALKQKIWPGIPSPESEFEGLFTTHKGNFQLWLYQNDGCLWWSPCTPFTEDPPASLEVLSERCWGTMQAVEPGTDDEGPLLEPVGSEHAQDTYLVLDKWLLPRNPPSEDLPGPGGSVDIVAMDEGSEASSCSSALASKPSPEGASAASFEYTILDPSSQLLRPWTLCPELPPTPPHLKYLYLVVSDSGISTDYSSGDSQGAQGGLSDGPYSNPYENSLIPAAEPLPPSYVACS

[4] = target: T1, chimeric receptor comprising the …; assay: cell-based or functional assay; remark: listed apart in the source
human EPO-R [5] = target: T2, human EPO-R; assay: cell-based or functional assay; remark: listed apart in the source
[6] = target: T3, Recombinant Human EPO R/Fc Chimera (human, UniProt P19235 25-250); assay: radioligand competition; competitor 125I-EPO; EPO R/Fc chimera captured on protein-G Sepharose
T3 construct: extracellular domain; Bought from R&D Systems, catalog number 963-ER; also called recombinant EPOr extracellular domain fused to the Fc portion of human IgG1; recombinant erythropoietin receptor; not shown: Fc portion of human IgG1
T3 sequence (looked up): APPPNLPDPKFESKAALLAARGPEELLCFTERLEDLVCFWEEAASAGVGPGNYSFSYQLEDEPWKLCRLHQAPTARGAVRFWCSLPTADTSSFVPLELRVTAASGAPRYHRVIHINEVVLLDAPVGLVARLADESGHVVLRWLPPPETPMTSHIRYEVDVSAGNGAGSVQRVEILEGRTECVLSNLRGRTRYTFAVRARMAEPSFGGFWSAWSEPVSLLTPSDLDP

B1: Peptide II (SEQ ID NO: 3) (peptide)
peptide: Ac-XGLYACHMGPIT[1Nal]VCQPLR[Sar]
modifications: disulfide 6-15 (inferred); not fully specified (residue 1); printed as (AcG)GLYACHMGPIT(1-nal)VCQPLR(MeG); also: homodimer, C-termini joined to alpha- and epsilon-amino groups of a lysine linker, PEG attached through a spacer, linkage and PEG size not readable
notes: What sets it apart from Peptide III (PEG linkage or size) stands only in drawing CHEM-US-00080
IC50 [1]: 0.11 nM

B2: Peptide III (SEQ ID NO: 3) (peptide)
peptide: Ac-XGLYACHMGPIT[1Nal]VCQPLR[Sar]
modifications: disulfide 6-15; not fully specified (residue 1); printed as (AcG)GLYACHMGPIT(1-nal)VCQPLR(MeG); also: homodimer, C-termini joined to alpha- and epsilon-amino groups of a lysine linker, PEG attached through a spacer, linkage and PEG size not readable
Reporter EC50 [2]: 0.15 nM
Proliferation EC50 (human EPO-R [3]): 72 nM

B3: Peptide I (SEQ ID NO: 2) (peptide)
peptide: Ac-XGLYACHMGPIT[1Nal]VCQPLR[Sar]K
modifications: disulfide 6-15; not fully specified (residues 1, 21); printed as (AcG)GLYACHMGPIT(1-nal)VCQPLR(MeG)K; also: homodimer joined by a branched tertiary amide linker on the epsilon-N of Lys21, PEG attached through a spacer, exact linker and PEG structure not readable
notes: The exact structure (linker, spacer, PEG size, carbamate or amide linkage) stands only in drawing CHEM-US-00099, which is not readable here
Reporter EC50 [4]: 0.195 nM
Proliferation EC50 (human EPO-R [5]): 0.165 nM
IC50 [6]: 0.111 nM
